Results on 32 sequences are retold here after the supplement of paper PMC12764529.

Data set [1] in a line: folding stability dG unfold (combined trypsin and chymotrypsin); higher = more stable. An outline of the steps: (§1)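 Bayesian fitting of sequencing counts gave K50 for each design. Unfolding free energy followed by setting this against a sequence-predicted unfolded-state K50 and a shared folded-state K50, either per protease or with trypsin and chymotrypsin combined. The designs, under 80 residues and lacking cysteine, were digested in a PA-tagged cDNA display format at 11 threefold-diluted protease concentrations and without protease, and only those with AlphaFold2 dimer inter-PAE above 15 were kept.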

The nature of data set [2]: folding stability dG unfold from chymotrypsin proteolysis; higher = more stable. An outline of the steps:
as §1

± gives the half width of the 95% confidence interval.

On to “SAGKSKTITLEIYNKETNIIIKIEIEINGDEVTIKVYAFNKDGKLIAKAEIKFNKKTKKLEIKIEIKKLSAG [r5_747_TrROS_Hall]”, for which the “folding stability dG unfold” value was more than 6 kcal/mol in data set [1] and 5.07 ± 0.33 kcal/mol in data set [2].

Consider “SAGLFDYLHKHNGLVRAALRRNGPPVVIPRLFRIEPDGDTYKLSVPDPDGVPQDWEVLDVEVFKPEDAISAG [r14_427_TrMRF]”, for which the “folding stability dG unfold” value was -0.0844 ± 0.18 kcal/mol in data set [1] and 0.275 ± 0.19 kcal/mol in data set [2].

Regarding “SAGMEVVEKIAKELGYENVKVESITPQVSPSGTTTLTITVKISKPGSTKTFTITASPEEIEEEIKKALSSAG [r5_549_JUSTAS]”, the “folding stability dG unfold” value was determined as 4.77 ± 0.23 kcal/mol in data set [1] and 4.72 ± 0.14 kcal/mol in data set [2].

“SAGMKPGETRHIPIRPGMPPEEFIEEIEAEGPVKIWFPGRKREIDSPDDIEDNFRNFPEPMPIEVKVPSAGG [r19_95_TrROS]”: the entries for the “folding stability dG unfold” value in data set [1] and in data set [2] were 0.157 ± 0.28 kcal/mol and 0.695 ± 0.12 kcal/mol, respectively.

For “SAGMLVRIETLPPGAATEEVVPMTPEEAKEYLEAQGYTVSTDPANPTMTFSHPDATVTVTFEPVPADLRSAG [r5_248_JUSTAS]”, the “folding stability dG unfold” value in data set [1] is 0.365 ± 0.15 kcal/mol; in data set [2], 0.79 ± 0.12 kcal/mol.

In the case of “SAGMPLPVKLVSFEPGANTLTIDRPYTNGPVTLSPDGTLTITGTLRDENGKPLETFTETIPVNWPEGTRSAG [r5_475_JUSTAS]”, the “folding stability dG unfold” value in data set [1] is -0.568 ± 0.17 kcal/mol; in data set [2], -0.24 ± 0.14 kcal/mol.

Turning to “SAGMSTTTTAEIKAAVEAAAGEGLNVAPPTVTATDGTPISDDTVIEPGAPVPVTVDVPIDPVPPPELRSAGG [r19_278_JUSTAS]”, the “folding stability dG unfold” value in data set [1] is -0.0815 ± 0.28 kcal/mol; in data set [2] it was 0.336 ± 0.09 kcal/mol.

As for “SAGMTFEEEFVEEVDGGEMVKTKTLYEYDPSTNSITVLEEEVEKIPLPEVAPAPAPPEAMEERGAPGALSAG [r5_393_JUSTAS]”, the “folding stability dG unfold” value in data set [1] is -0.115 ± 0.09 kcal/mol; in data set [2], 0.254 ± 0.093 kcal/mol.

As to “SAGMTHVLPVPELSPEEVRALAEALPEGEELVLLVPGPELLAELRAAGFPVDPARFRLATPEERAELLASAG [r5_354_JUSTAS]”, the “folding stability dG unfold” value is -0.189 ± 0.12 kcal/mol in data set [1] and 0.857 ± 0.13 kcal/mol in data set [2].

For “SAGNMTNEQLQERIKEAVREDGWPTYRIKMSGPDGKNMNFQVDFPEERRQKIQKELGWDITEVEPRRYSAGG [r19_50_TrROS]”, the “folding stability dG unfold” value in data set [1] is -0.578 ± 0.3 kcal/mol; in data set [2], -0.107 ± 0.38 kcal/mol.

Regarding “SAGSEVTLEITLTREVPSGKPVTLTETKTVPLAPSVPVEEVIKALKSPEWTAKVTLYTDGTPVTELTLDSAG [r5_278_JUSTAS]”, the results for the “folding stability dG unfold” value in data set [1] and in data set [2] were 0.176 ± 0.069 kcal/mol and 0.604 ± 0.064 kcal/mol, respectively.

For the sequence “SAGSVPQLIEDKLQEGSPNSSVEVKPVDTLGGTTVLEVKIERIDTSSGNGKLTSEDKIIEVPAGEELGSAGG [r19_8_JUSTAS]”, the “folding stability dG unfold” value in data set [1] was 0.0158 ± 0.086 kcal/mol; in data set [2], 0.467 ± 0.049 kcal/mol.

As for “SAGTVTSSTTPLPDGSLLSTTTTTSPVSGTSVTTSTTTTTPVTPTTPPPPPRPVYPRYYDGVTEPALSLSAG [r5_169_JUSTAS]”, the “folding stability dG unfold” value is -0.639 ± 0.18 kcal/mol in data set [1] and -0.12 ± 0.068 kcal/mol in data set [2].

Take “SAKKHIPIPMDDPENLKKAIEEALENAENGKKVEIPIRSPDGPVWIEVDPKKKDIKIRNPGNGEERKIKSAG [r14_423_TrROS]”: the “folding stability dG unfold” value was -0.0974 ± 0.53 kcal/mol in data set [1] and 0.228 ± 0.084 kcal/mol in data set [2].

Take “SAMIEVYRPPDRALVKLPSGKVEILDDPEAFEARVRAESDLPIRVTPLSPESPEFKALLEEIEKKLKGKSAG [r14_235_JUSTAS]”: the “folding stability dG unfold” value in data set [1] is 0.0988 ± 0.31 kcal/mol; in data set [2] it was 0.192 ± 0.18 kcal/mol.

With “SAMLTLPVESTDPARVEAAIAEARALAAQGARVEVPVRTPEGPLRFLVDPATGRVVRTDPATGATEVLPSAG [r14_423_JUSTAS]”, the “folding stability dG unfold” value is -0.244 ± 0.13 kcal/mol in data set [1] and 0.161 ± 0.17 kcal/mol in data set [2].

For the sequence “SAMTISVSETPDTGSLTVPMTLEPDTVEEVVEEVAKEIAPEEAEVSIEVTEVVPHPDSVTVTAKITVRPSAG [r14_345_JUSTAS]”, the “folding stability dG unfold” value in data set [1] is -0.0666 ± 0.085 kcal/mol; in data set [2], 0.361 ± 0.041 kcal/mol.

For the sequence “SAMTTTTTTTDPASGRTVVTTTTPLPDGSVVTTEVDLSNPVRTTTTHPLTDGTPAPTTTTTALPADATLSAG [r14_64_JUSTAS]”, the “folding stability dG unfold” value is -0.345 ± 0.12 kcal/mol in data set [1] and 0.0551 ± 0.046 kcal/mol in data set [2].

As for “SAMVPLEEAAKRVAEELGLEYTEITKIVPGTGELIVEFPGKKLTVTQDPATGSTTVEETFYDPETGVKKSAG [r14_270_JUSTAS]”, the “folding stability dG unfold” value in data set [1] is less than -1 kcal/mol; in data set [2], -1.35 ± 0.28 kcal/mol.

Turning to “SAPMTPAERARPRIKKLVNLLAEDGNFKVDIERDPGDPGVVVTIKLDPNSREKFAERLGIPRDELYDLISAG [r14_688_TrROS]”, the figures for the “folding stability dG unfold” value in data set [1] and in data set [2] were -0.373 ± 0.41 kcal/mol and -0.0457 ± 0.23 kcal/mol, respectively.

As for “SATKTINFDEFNDMMNQGDPPMLRHIIKEAREKDPDKEITIRMPKNPMFRDYIKEAFKEEGYPVKITPHSAG [r14_236_TrROS]”, the “folding stability dG unfold” value was less than -1 kcal/mol in data set [1] and -0.494 ± 0.36 kcal/mol in data set [2].

As for “SAVTFPVPVTVTVPDADGGPPAVTVPVAVPVDPDAVRDAAIERLRRELAEAGRPDVTEEDLARPEFLAARSA [r9_263_TrMRF]”, the “folding stability dG unfold” value in data set [1] is -0.335 ± 0.23 kcal/mol; in data set [2] it was 0.622 ± 0.16 kcal/mol.

As to “SDPLGTPVPLTYRVLLTFPGVSRPFLGPGGVVRSVSVNPTVLVPGPANSYPAVRELAEPLGLSVSVTPLASA [r9_1209_TrMRF]”, the entries for the “folding stability dG unfold” value in data set [1] and in data set [2] were -0.871 ± 0.23 kcal/mol and -0.289 ± 0.21 kcal/mol, respectively.

Regarding “SGMEEIKIEVLSTETDESGTTYTETKIVLPDGKVIEATMTTTTVPDAAGNPVAVETLTLKDKTYTRTIPLSA [r9_271_JUSTAS]”, the “folding stability dG unfold” value in data set [1] worked out at 0.101 ± 0.17 kcal/mol; in data set [2], 0.448 ± 0.12 kcal/mol.

As to “SKPMPADELMEQHPNMIMIRTPNDKHIFINPEENEIFRFNPDEGRVYWIPGTLEEIEELVPDNGFEIWPFSA [r9_721_TrROS]”, the entries for the “folding stability dG unfold” value in data set [1] and in data set [2] were 0.286 ± 0.22 kcal/mol and 0.536 ± 0.21 kcal/mol, respectively.

“SMEEKEEVLSVEVDPVGEVVVTRTLVKKSAVDPTNPNNPVPLSLEEIVEPVPLPPPVPLPVPGNPRFEAASA [r9_357_JUSTAS]”: the “folding stability dG unfold” value amounted to 0.154 ± 0.081 kcal/mol in data set [1] and 0.77 ± 0.072 kcal/mol in data set [2].

Regarding “SMEPPVPKIKARLVEVREEGERPRALFEIEEIEDAPPEIEELFKRGAKIEVEIPPDYPLKEDEEIEVDPLSA [r9_557_TrMRF]”, the “folding stability dG unfold” value in data set [1] amounted to 0.0252 ± 0.28 kcal/mol; in data set [2], 0.622 ± 0.15 kcal/mol.

For “SMNVTEEVTVEELPSGEVLTETVVTEPSGVTTVTTTLASPPDRPVVETRTTTYPPDGSSTETSTVAPLPGSA [r9_1179_JUSTAS]”, the figures for the “folding stability dG unfold” value in data set [1] and in data set [2] were 0.00729 ± 0.23 kcal/mol and 0.507 ± 0.054 kcal/mol, respectively.

In the case of “SMVIPSSLGFEPALERVRALLPPERRYVVTELDPATGETTTATYDPATGTVTTTATPSAAGPPYVVVEVVSA [r9_1059_JUSTAS]”, the “folding stability dG unfold” value was -0.251 ± 0.086 kcal/mol in data set [1] and 0.345 ± 0.064 kcal/mol in data set [2].

Consider “SPKPFEMSIQIPGITPQALEKAVELARKDGWVENEIEPDPENNNVQIDVEMRGTPEKMHRAQNAIQEAIKSA [r9_652_TrROS]”, for which the “folding stability dG unfold” value in data set [1] was -0.386 ± 0.21 kcal/mol; in data set [2], 0.197 ± 0.18 kcal/mol.

“SPPVLYEITITFTYSDGTTVTKTINATVPRSQIDALIQKIIEEPGNKPYTKVTFNIYDKSTGTWTTITIDSA [r9_97_JUSTAS]”: the “folding stability dG unfold” value in data set [1] turned out to be 5.66 ± 0.23 kcal/mol; in data set [2] it was 5.76 ± 0.18 kcal/mol.

Regarding “SSMVVINFPDTKKATPETLRKEIEPVAAPGKPVLVTVYPPTGVVLKTATVEPDKVEEVDPSHPYIVEIVASA [r9_264_JUSTAS]”, the “folding stability dG unfold” value in data set [1] is -0.558 ± 0.16 kcal/mol; in data set [2], -0.377 ± 0.24 kcal/mol.
